± gives the uncertainty stated by the source.
Test: abundance fitness (aPCA) (normalised: wild type 0, dead -1); higher = more abundant; growth selection in yeast, the domain comes from the species named
Details: Homo sapiens

| Substance | abundance fitness |
| --- | --- |
| Scaffold attachment factor B2 R29H, Q14151 | -0.099 ± 0.15 |
| Scaffold attachment factor B2 R29I, Q14151 | -0.211 ± 0.15 |
| Scaffold attachment factor B2 R29K, Q14151 | -0.038 ± 0.099 |
| Scaffold attachment factor B2 R29L, Q14151 | -0.288 ± 0.07 |
| Scaffold attachment factor B2 R29M, Q14151 | -0.288 ± 0.13 |
| Scaffold attachment factor B2 R29N, Q14151 | -0.016 ± 0.11 |
| Scaffold attachment factor B2 R29P, Q14151 | -0.117 ± 0.13 |
| Scaffold attachment factor B2 R29Q, Q14151 | -0.162 ± 0.1 |
| Scaffold attachment factor B2 R29S, Q14151 | -0.097 ± 0.1 |
| Scaffold attachment factor B2 R29T, Q14151 | -0.01 ± 0.16 |
| Scaffold attachment factor B2 R29V, Q14151 | -0.233 ± 0.08 |
| Scaffold attachment factor B2 R29W, Q14151 | -0.246 ± 0.083 |
| Scaffold attachment factor B2 R29Y, Q14151 | -0.4 ± 0.12 |
| Scaffold attachment factor B2 R34A, Q14151 | 0.049 ± 0.079 |
| Scaffold attachment factor B2 R34D, Q14151 | -0.055 ± 0.12 |
| Scaffold attachment factor B2 R34F, Q14151 | -0.673 ± 0.23 |
| Scaffold attachment factor B2 R34G, Q14151 | 0.012 ± 0.077 |
| Scaffold attachment factor B2 R34H, Q14151 | -0.205 ± 0.13 |
| Scaffold attachment factor B2 R34I, Q14151 | -0.75 ± 0.15 |
| Scaffold attachment factor B2 R34K, Q14151 | -0.184 ± 0.12 |
| Scaffold attachment factor B2 R34L, Q14151 | -0.473 ± 0.089 |
| Scaffold attachment factor B2 R34M, Q14151 | -0.31 ± 0.1 |

| Substance | abundance fitness |
| --- | --- |
| Scaffold attachment factor B2 R34N, Q14151 | -0.456 ± 0.33 |
| Scaffold attachment factor B2 R34P, Q14151 | 0.02 ± 0.13 |
| Scaffold attachment factor B2 R34Q, Q14151 | 0.003 ± 0.081 |
| Scaffold attachment factor B2 R34S, Q14151 | 0.14 ± 0.087 |
| Scaffold attachment factor B2 R34T, Q14151 | 0.157 ± 0.099 |
| Scaffold attachment factor B2 R34V, Q14151 | -0.45 ± 0.087 |
| Scaffold attachment factor B2 R34W, Q14151 | -0.679 ± 0.086 |
| Scaffold attachment factor B2 R34Y, Q14151 | -0.616 ± 0.12 |
| Scaffold attachment factor B2 R39G, Q14151 | -0.606 ± 0.14 |
| Scaffold attachment factor B2 R45C, Q14151 | -0.686 ± 0.14 |
| Scaffold attachment factor B2 R45D, Q14151 | -0.52 ± 0.13 |
| Scaffold attachment factor B2 R45E, Q14151 | -0.411 ± 0.097 |
| Scaffold attachment factor B2 R45F, Q14151 | -0.784 ± 0.21 |
| Scaffold attachment factor B2 R45G, Q14151 | -0.486 ± 0.08 |
| Scaffold attachment factor B2 R45H, Q14151 | -0.721 ± 0.23 |
| Scaffold attachment factor B2 R45K, Q14151 | -0.374 ± 0.12 |
| Scaffold attachment factor B2 R45L, Q14151 | -0.201 ± 0.078 |
| Scaffold attachment factor B2 R45M, Q14151 | -0.66 ± 0.29 |
| Scaffold attachment factor B2 R45N, Q14151 | -0.99 ± 0.24 |
| Scaffold attachment factor B2 R45P, Q14151 | -0.682 ± 0.11 |
| Scaffold attachment factor B2 R45Q, Q14151 | -0.326 ± 0.091 |
| Scaffold attachment factor B2 R45S, Q14151 | -0.509 ± 0.092 |

| Substance | abundance fitness |
| --- | --- |
| Scaffold attachment factor B2 R45T, Q14151 | -0.576 ± 0.11 |
| Scaffold attachment factor B2 R45V, Q14151 | -0.565 ± 0.095 |
| Scaffold attachment factor B2 R45W, Q14151 | -0.709 ± 0.085 |
| Scaffold attachment factor B2 R59A, Q14151 | -0.465 ± 0.092 |
| Scaffold attachment factor B2 R59C, Q14151 | -0.583 ± 0.19 |
| Scaffold attachment factor B2 R59D, Q14151 | -0.54 ± 0.24 |
| Scaffold attachment factor B2 R59E, Q14151 | -0.294 ± 0.099 |
| Scaffold attachment factor B2 R59G, Q14151 | -0.23 ± 0.11 |
| Scaffold attachment factor B2 R59H, Q14151 | -0.474 ± 0.22 |
| Scaffold attachment factor B2 R59I, Q14151 | -1.2 ± 0.22 |
| Scaffold attachment factor B2 R59K, Q14151 | -0.41 ± 0.19 |
| Scaffold attachment factor B2 R59L, Q14151 | -0.771 ± 0.1 |
| Scaffold attachment factor B2 R59M, Q14151 | -0.643 ± 0.12 |
| Scaffold attachment factor B2 R59N, Q14151 | -0.623 ± 0.32 |
| Scaffold attachment factor B2 R59P, Q14151 | -0.249 ± 0.094 |
| Scaffold attachment factor B2 R59Q, Q14151 | -0.595 ± 0.097 |
| Scaffold attachment factor B2 R59S, Q14151 | -0.322 ± 0.087 |
| Scaffold attachment factor B2 R59T, Q14151 | -0.223 ± 0.15 |
| Scaffold attachment factor B2 R59V, Q14151 | -0.496 ± 0.097 |
| Scaffold attachment factor B2 R59W, Q14151 | -1.25 ± 0.15 |
| Scaffold attachment factor B2 S31A, Q14151 | -0.051 ± 0.1 |
| Scaffold attachment factor B2 S31C, Q14151 | -0.415 ± 0.16 |

| Substance | abundance fitness |
| --- | --- |
| Scaffold attachment factor B2 S31D, Q14151 | -0.086 ± 0.12 |
| Scaffold attachment factor B2 S31E, Q14151 | -0.01 ± 0.092 |
| Scaffold attachment factor B2 S31F, Q14151 | -0.488 ± 0.16 |
| Scaffold attachment factor B2 S31G, Q14151 | -0.208 ± 0.076 |
| Scaffold attachment factor B2 S31H, Q14151 | -0.194 ± 0.09 |
| Scaffold attachment factor B2 S31K, Q14151 | -0.221 ± 0.11 |
| Scaffold attachment factor B2 S31L, Q14151 | -0.312 ± 0.1 |
| Scaffold attachment factor B2 S31M, Q14151 | -0.341 ± 0.11 |
| Scaffold attachment factor B2 S31N, Q14151 | -0.027 ± 0.11 |
| Scaffold attachment factor B2 S31Q, Q14151 | -0.311 ± 0.095 |
| Scaffold attachment factor B2 S31T, Q14151 | -0.225 ± 0.48 |
| Scaffold attachment factor B2 S31Y, Q14151 | -0.629 ± 0.12 |
| Scaffold attachment factor B2 S54A, Q14151 | -0.037 ± 0.077 |
| Scaffold attachment factor B2 S54C, Q14151 | -0.44 ± 0.14 |
| Scaffold attachment factor B2 S54D, Q14151 | -0.1 ± 0.14 |
| Scaffold attachment factor B2 S54E, Q14151 | -0.038 ± 0.11 |
| Scaffold attachment factor B2 S54G, Q14151 | -0.101 ± 0.071 |
| Scaffold attachment factor B2 S54H, Q14151 | -0.191 ± 0.18 |
| Scaffold attachment factor B2 S54I, Q14151 | -0.003 ± 0.21 |
| Scaffold attachment factor B2 S54K, Q14151 | 0.031 ± 0.13 |
| Scaffold attachment factor B2 S54L, Q14151 | -0.167 ± 0.1 |
| Scaffold attachment factor B2 S54M, Q14151 | -0.15 ± 0.2 |

| Substance | abundance fitness |
| --- | --- |
| Scaffold attachment factor B2 S54N, Q14151 | -0.223 ± 0.12 |
| Scaffold attachment factor B2 S54Q, Q14151 | 0.042 ± 0.1 |
| Scaffold attachment factor B2 S54R, Q14151 | 0.071 ± 0.074 |
| Scaffold attachment factor B2 S54T, Q14151 | 0.073 ± 0.11 |
| Scaffold attachment factor B2 S54V, Q14151 | -0.163 ± 0.078 |
| Scaffold attachment factor B2 S54W, Q14151 | -0.261 ± 0.18 |
| Scaffold attachment factor B2 S54Y, Q14151 | -0.358 ± 0.27 |
| Scaffold attachment factor B2 T27A, Q14151 | -0.164 ± 0.1 |
| Scaffold attachment factor B2 T27C, Q14151 | -0.112 ± 0.11 |
| Scaffold attachment factor B2 T27D, Q14151 | 0.024 ± 0.18 |
| Scaffold attachment factor B2 T27E, Q14151 | 0.08 ± 0.21 |
| Scaffold attachment factor B2 T27G, Q14151 | -0.128 ± 0.094 |
| Scaffold attachment factor B2 T27I, Q14151 | -0.136 ± 0.19 |
| Scaffold attachment factor B2 T27K, Q14151 | -0.658 ± 0.16 |
| Scaffold attachment factor B2 T27L, Q14151 | -0.074 ± 0.13 |
| Scaffold attachment factor B2 T27M, Q14151 | -0.053 ± 0.15 |
| Scaffold attachment factor B2 T27Q, Q14151 | -0.076 ± 0.19 |
| Scaffold attachment factor B2 T27R, Q14151 | -0.275 ± 0.096 |
| Scaffold attachment factor B2 T27S, Q14151 | -0.175 ± 0.13 |
| Scaffold attachment factor B2 T27V, Q14151 | -0.369 ± 0.15 |
| Scaffold attachment factor B2 T27W, Q14151 | -0.514 ± 0.13 |
| Scaffold attachment factor B2 T49A, Q14151 | -0.181 ± 0.089 |

Source: the Human Domainome abundance scans (Beltran et al. 2025)
